Data as given in CN114437215A (SHANGHAI MAIJI BIOTECHNOLOGY CO LTD, dated 2022).

T1: 人CD38胞外段Flag标签蛋白 hCD38-ECD-Flag (human, UniProt P28907 43-300)
T1 construct: range 43-300; No linker between CD38 and the tag is stated; also called hCD38-Flag
T1 sequence: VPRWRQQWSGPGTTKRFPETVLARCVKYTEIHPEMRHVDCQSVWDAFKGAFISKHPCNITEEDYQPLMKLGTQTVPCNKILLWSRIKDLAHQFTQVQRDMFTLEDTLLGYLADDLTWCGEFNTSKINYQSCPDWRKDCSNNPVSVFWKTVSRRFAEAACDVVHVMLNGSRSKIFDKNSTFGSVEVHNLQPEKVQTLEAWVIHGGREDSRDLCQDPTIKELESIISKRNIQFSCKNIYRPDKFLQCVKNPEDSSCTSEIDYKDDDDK

T2: 食蟹猴CD38胞外段Flag标签蛋白 cyno-CD38-ECD-Flag (cynomolgus monkey, UniProt Q5VAN0 44-301)
T2 construct: range 44-301; No linker between CD38 and the tag is stated; also called cyno-CD38-Flag
T2 sequence: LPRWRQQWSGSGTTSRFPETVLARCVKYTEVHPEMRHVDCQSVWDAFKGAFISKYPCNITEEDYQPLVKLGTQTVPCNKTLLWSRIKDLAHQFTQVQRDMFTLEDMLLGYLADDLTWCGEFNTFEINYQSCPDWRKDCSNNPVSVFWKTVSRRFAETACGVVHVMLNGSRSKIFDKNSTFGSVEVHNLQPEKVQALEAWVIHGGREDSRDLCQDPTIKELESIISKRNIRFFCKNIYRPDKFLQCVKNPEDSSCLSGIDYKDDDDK

B1: 人源化抗人CD38单克隆抗体105H (antibody, human IgG1, kappa, V domains shown)
VH: QVQLVQSGAEVKKPGASVKVSCKASGYTFTSYWMHWVRQAPGQGLEWIGHINPSSGYSEYSQKFKDRATLTADKSTSTAYMELSSLRSEDTAVYYCEIYYYVSRYVGDSWGQGTLVTVSS
VL: DIQMTQSPSSLSASVGDRVTITCRASQEISGYLSWLQQKPGKTIKRLIYAASTLDSGVPSRFSGSRSGSDFTLTISSLQPEDFATYYCLQYDSYPLTFGQGTKVEIKR
notes: Humanized IgG1; also called 105-Humanization; 105号抗体的人源化抗体
B2: 人源化抗人CD38单克隆抗体57H (antibody, human IgG1, kappa, V domains shown)
VH: EVQLVESGGGLVQPGGSLRLSCAASGFTFSSFGMHWVRQAPGKGLEWVAYIGGDSNIIYYADTVKGRFTISRDNSKNTLYLQMNSLRAEDTAVYYCAKSHDYTMDYWGQGTLVTVSS
VL: DIVMTQSPSSLAVSLGERVTITCKSSQSLLYSTNQKNYLAWFQQKPGQSPKLLIYWASTRESGVPDRFSGSGSGTDFTLTISSLQAEDVAVYYCQRYYNYPYTFGQGTKVEIKR
notes: also called 57号抗体的人源化抗体
B3: 人源化抗人CD38单克隆抗体116H (antibody, human IgG1, kappa, V domains shown)
VH: QVTLKESGPALVKPTQTLTLTCTLSGFSLSTSRMGVGWIRQPPGKGLEWLAHIWWDDDKRYNPALKSRLTISKDTSSNQVFLKIASVDKEDTATYYCGRIEVGRGAWFAYWGQGTLVTVSS
VL: EIVLTQSPATLSLSPGERVSVTCKASQDVVTTVAWYQQKPGQAPRTLIYSASYRYSGVPARFSGSGSGTDFTLTISSLEPEDFAVYYCQQYYTYPFTFGQGTKVEIKR
notes: also called 116号抗体的人源化抗体
B4: 人源化抗人CD38单克隆抗体145H (antibody, human IgG1, kappa, V domains shown)
VH: QVQLVQSGAEVKKPGASVKVSCKASGYTFTNYLIDWVRQAPGQGLEWIGLINPGSGSTKYNEKFKGRVTLTADKSTSTAYMELSSLRSEDTAVYYCAKTGTLPYWGQGTLVTVSS
VL: DIQMTQSPSSLSASVGDRVTITCKASQNVGTSVAWYQQKPGKAPKLLIYSTSYRSSGVPSRFSGSGSGTDFTLTISSLQPEDFATYYCQQYGSYPLTFGQGTKVEIKR
notes: also called 145号抗体的人源化抗体

biological target: T1, 人CD38胞外段Flag标签蛋白 hCD38-ECD-Flag; assay: SPR, Biacore T200; antibody captured on Protein A CM5 chip, hCD38-Flag as analyte

Kd	koff	kon	Binder
32.8 nM	0.000975 s⁻¹	29800 M⁻¹ s⁻¹	B1
0.382 nM	0.000101 s⁻¹	264000 M⁻¹ s⁻¹	B2
0.065 nM	9.53e-05 s⁻¹	1.47e+06 M⁻¹ s⁻¹	B3
3.22 nM	0.00198 s⁻¹	612000 M⁻¹ s⁻¹	B4

biological target: T2, 食蟹猴CD38胞外段Flag标签蛋白 cyno-CD38-ECD-Flag; assay: SPR, Biacore T200; antibody captured on Protein A CM5 chip, cyno-CD38-Flag as analyte

Kd	koff	kon	Binder
3.4 nM	0.000208 s⁻¹	61100 M⁻¹ s⁻¹	B1
1.68 nM	9.2e-05 s⁻¹	54900 M⁻¹ s⁻¹	B2
0.405 nM	0.000102 s⁻¹	251000 M⁻¹ s⁻¹	B3
40.2 nM	0.00393 s⁻¹	97800 M⁻¹ s⁻¹	B4
